{"source": "patent US20060183194A1", "about": "(Genentech, published 2006)", "molecules": {"B1": {"name": "HRG2: HRG-β1 177-244 displayed on phage, fused to pIII 247 (ligand, phage M13)", "chain": "SHLVKCAEKEKTFCVNGGECFMVKDLSNPSRYLCKCPNEFTGDRCQNYVMASFYKHLGIEFMEAEELYGGSGGGSGSGDFDYEKMANANKGAMTENADENALQSDAKGKLDSVATDYGAAIDGFIGDVSGLANGNGATGDFAGSNSQMAQVGDGDNSPLMNNFRQYLPSLPQSVECRPFVFSAGKPYEFSIDCDKINLFRGVFAFLLYVATFMYVFSTFANILRNKES", "notes": "range 247-C-terminus; Monovalent phage display; also called pHRG2-g3"}, "B2": {"name": "HRG11: HRG-β1 177-230 displayed on phage, GGGSGGG linker to pIII 247 (ligand, phage M13)", "chain": "SHLVKCAEKEKTFCVNGGECFMVKDLSNPSRYLCKCPNEFTGDRCQNYVMASFYGGGSGGGGGSGGGSGSGDFDYEKMANANKGAMTENADENALQSDAKGKLDSVATDYGAAIDGFIGDVSGLANGNGATGDFAGSNSQMAQVGDGDNSPLMNNFRQYLPSLPQSVECRPFVFSAGKPYEFSIDCDKINLFRGVFAFLLYVATFMYVFSTFANILRNKES", "notes": "range 247-C-terminus; Monovalent phage display; also called pHRG11-g3"}, "B3": {"name": "HRG8: wild-type HRG-β1 EGF (HRG-β1 177-228) displayed on phage, linker to pIII 323 (ligand, phage M13)", "chain": "SHLVKCAEKEKTFCVNGGECFMVKDLSNPSRYLCKCPNEFTGDRCQNYVMASGGGSGGGSGGGSNSQMAQVGDGDNSPLMNNFRQYLPSLPQSVECRPFVFSAGKPYEFSIDCDKINLFRGVFAFLLYVATFMYVFSTFANILRNKES", "notes": "range 323-C-terminus; Monovalent phage display; also called pHRG8-g3; wild-type HRG-β1 EGF phage"}, "B4": {"name": "soluble wild-type HRG-β1 EGF (HRG8, HRG-β1 177-228) (ligand)", "chain": "SHLVKCAEKEKTFCVNGGECFMVKDLSNPSRYLCKCPNEFTGDRCQNYVMAS", "notes": "also called HRG8 (WT)"}, "B5": {"name": "soluble HRG-β1 EGF variant F1 (ligand)", "chain": "B4 chain with M22K, M50I", "modifications": "also: three disulfide bonds, pairing not given here"}, "B6": {"name": "soluble HRG-β1 EGF variant A3 (ligand)", "chain": "B4 chain with S1W, H2E, K5P", "modifications": "also: three disulfide bonds, pairing not given here"}}, "key": {"[1]": {"molecular_target": "T1, ErbB-3 receptor-Ig fusion (human, UniProt P21860 20-643)", "T1 construct": "extracellular domain;range 224-C-terminus; also called ErbB-3-Ig; 3/3 homodimer; not shown: human IgG heavy chain constant region from His224 (hinge) on", "T1 sequence (P21860 other isoform, or with tags, fused parts or gaps)": "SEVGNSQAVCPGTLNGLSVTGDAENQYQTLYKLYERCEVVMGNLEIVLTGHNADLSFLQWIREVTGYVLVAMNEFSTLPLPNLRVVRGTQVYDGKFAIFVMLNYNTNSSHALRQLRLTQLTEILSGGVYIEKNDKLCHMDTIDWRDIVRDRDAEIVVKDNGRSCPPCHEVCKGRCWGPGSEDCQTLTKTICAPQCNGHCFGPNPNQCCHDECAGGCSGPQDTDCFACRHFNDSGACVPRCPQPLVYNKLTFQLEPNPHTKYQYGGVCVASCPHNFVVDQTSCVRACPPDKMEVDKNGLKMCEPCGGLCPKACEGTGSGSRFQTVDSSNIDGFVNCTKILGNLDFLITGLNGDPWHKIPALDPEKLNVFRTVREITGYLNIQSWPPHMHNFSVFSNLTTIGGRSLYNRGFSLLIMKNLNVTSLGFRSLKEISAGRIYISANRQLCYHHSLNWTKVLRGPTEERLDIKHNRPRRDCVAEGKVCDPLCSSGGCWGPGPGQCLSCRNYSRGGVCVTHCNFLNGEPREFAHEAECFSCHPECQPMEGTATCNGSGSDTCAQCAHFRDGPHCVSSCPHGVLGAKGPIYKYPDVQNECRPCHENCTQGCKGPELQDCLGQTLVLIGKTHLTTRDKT", "test": "phage ELISA; ratio to wild-type HRG-β1 177-244 phage"}, "[2]": {"molecular_target": "T2, ErbB-4 receptor-Ig fusion (human, UniProt Q15303 26-651)", "T2 construct": "extracellular domain;range 224-C-terminus; also called ErbB-4-Ig; not shown: human IgG heavy chain constant region from His224 (hinge) on", "T2 sequence": "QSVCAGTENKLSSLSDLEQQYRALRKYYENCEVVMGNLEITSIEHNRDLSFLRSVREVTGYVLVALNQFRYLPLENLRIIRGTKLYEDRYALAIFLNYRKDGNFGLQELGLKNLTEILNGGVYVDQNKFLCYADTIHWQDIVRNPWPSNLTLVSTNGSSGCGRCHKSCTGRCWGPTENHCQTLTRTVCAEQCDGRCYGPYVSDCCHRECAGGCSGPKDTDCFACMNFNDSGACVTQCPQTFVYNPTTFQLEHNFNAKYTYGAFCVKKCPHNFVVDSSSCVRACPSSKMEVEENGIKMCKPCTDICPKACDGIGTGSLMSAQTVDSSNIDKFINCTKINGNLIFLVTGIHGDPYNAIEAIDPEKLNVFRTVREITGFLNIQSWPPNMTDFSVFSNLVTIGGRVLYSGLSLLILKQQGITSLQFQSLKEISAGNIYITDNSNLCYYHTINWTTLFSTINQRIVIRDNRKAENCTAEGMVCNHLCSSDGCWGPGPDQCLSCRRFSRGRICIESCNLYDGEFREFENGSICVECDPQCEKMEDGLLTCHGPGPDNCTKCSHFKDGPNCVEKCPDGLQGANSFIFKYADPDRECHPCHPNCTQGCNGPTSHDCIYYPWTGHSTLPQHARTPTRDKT", "test": "phage ELISA; ratio to wild-type HRG-β1 177-244 phage"}, "[3]": {"molecular_target": "T2, ErbB-4 receptor-Ig fusion", "test": "phage ELISA; soluble ErbB-4-Ig as competitor"}, "[4]": {"molecular_target": "T1, ErbB-3 receptor-Ig fusion", "test": "phage ELISA; soluble ErbB-3-Ig as competitor"}, "[5]": {"molecular_target": "T1, ErbB-3 receptor-Ig fusion", "test": "phage ELISA; soluble ErbB-3-Ig as competitor", "remark": "listed apart in the source", "experimental": "(§1) Microtiter plates (Nunc Maxisorp™ 96-well plates, Inter Med, Denmark) for phage ELISA were prepared as follows. The wells were precoated overnight with 0.5 μg of rabbit anti-human IgG (Fc gamma fragment-specific) antibodies (Jackson Immunoresearch, West Grove, Pa.) in 100 μL 50 mM NaCO₃ (pH 9.6). The wells were blocked for 30 minutes (min) with 200 μL PBS containing 0.1% bovine serum albumin (BSA) and rinsed with wash buffer (PBS containing 0.05% Tween 20™). The wells were then coated with 0.1 μg ErbB-2/3-Ig in binding buffer (PBS, 0.1% BSA, 0.05% Tween 20™) for 1 h, and washed again.\n(§2) Serial dilutions of soluble ErbB-2/3-Ig (competitor) and a concentration of phage predetermined to give 60% saturation (without competitor) were added to the wells in 100 μL binding buffer. Following incubation for 2 h at room temperature, plates were washed extensively and treated with a 1:900 dilution of anti-M13 horseradish peroxidase conjugate (Pharmacia, Piscataway, N.J.) for 20 min. The amount of phage binding was determined by assaying horseradish peroxidase activity using o-phenylenediamine dihydrochloride) substrate solution (Sigma Chemical Company, St. Louis, Mo.). EC₅₀ values were calculated as the concentration of soluble ErbB-2/3-Ig required to compete half of the phage off the plate."}, "[6]": {"molecular_target": "T3, ErbB-2/3 receptor-Ig fusion (human, UniProt P04626 23-652; P21860 20-643)", "T3 construct": "extracellular domain;range 224-C-terminus; Co-expressed in HEK-293; also called ErbB-2/3-Ig; 2/3-heterodimer; not shown: human IgG heavy chain constant region from His224 (hinge) on", "test": "phage ELISA; soluble ErbB-2/3-Ig competes phage off plate-bound ErbB-2/3-Ig"}, "[7]": {"molecular_target": "T2, ErbB-4 receptor-Ig fusion", "test": "phage ELISA; soluble ErbB-4-Ig as competitor", "remark": "listed apart in the source", "experimental": "as §1, §2"}, "[8]": {"molecular_target": "T2, ErbB-4 receptor-Ig fusion", "test": "displacement of 125I-HRG from plate-bound ErbB-4-Ig", "text": "For the ErbB-4 binding assays, PBS containing 1% BSA was used as the blocking and binding buffers, and the wash buffer was PBS containing 0.05% Tween 20™."}, "[9]": {"molecular_target": "T1, ErbB-3 receptor-Ig fusion", "test": "phage ELISA; soluble ErbB-3-Ig as competitor", "remark": "listed apart in the source", "experimental": "as §1\n(§3) Serial dilutions of soluble ErbB-2/3-Ig (competitor) and a concentration of phage predetermined to give 60% saturation (without competitor) were added to the wells in 100 μL binding buffer. Following incubation for 2 h at room temperature, plates were washed extensively and treated with a 1:900 dilution of anti-M13 horseradish peroxidase conjugate (Pharmacia, Piscataway, N.J.) for 20 min. The amount of phage binding was determined by assaying horseradish peroxidase activity using o-phenylenediamine dihydrochloride) substrate solution (Sigma Chemical Company, St. Louis, Mo.). EC₅₀ values were calculated as the concentration of soluble ErbB-2/3-Ig required to compete half of the phage off the plate. […]"}, "[10]": {"molecular_target": "T2, ErbB-4 receptor-Ig fusion", "test": "phage ELISA; soluble ErbB-4-Ig as competitor", "remark": "listed apart in the source", "experimental": "as §1, §3"}, "[11]": {"molecular_target": "T3, ErbB-2/3 receptor-Ig fusion", "test": "displacement of 125I-HRG from plate-bound ErbB-2/3-Ig"}, "[12]": {"molecular_target": "ErbB-2/3 heterodimers on MCF7 breast cancer carcinoma cells (UniProt P04626 23-1255; P21860 20-1342, limits assumed)", "test": "cell-based or functional assay"}, "[13]": {"molecular_target": "T3, ErbB-2/3 receptor-Ig fusion", "test": "told with the 125I-HRG displacement assay; reference ErbB-3-Ig homodimer"}, "[14]": {"molecular_target": "T1, ErbB-3 receptor-Ig fusion", "test": "displacement of 125I-HRG from plate-bound ErbB-3-Ig"}}, "note": "Numbering of substitutions follows the chain as printed. In names and notes the source's numbering stands. Ends that are not written are not given here."}
{"molecule": "HRG-β1 177-244 H178L with 228-231 replaced by Met, on phage (from UniProt P69168 265-424) (ligand)", "values": [{"measurement": "EC50 Mut/WT", "setting": "[1]", "value": 6.4}, {"measurement": "EC50 Mut/WT", "setting": "[2]", "value": 1.7}]}
{"molecule": "HRG-β1 177-244 H178W with 228-231 replaced by Met, on phage (from UniProt P69168 265-424) (ligand)", "values": [{"measurement": "EC50 Mut/WT", "setting": "[1]", "value": 1.2}, {"measurement": "EC50 Mut/WT", "setting": "[2]", "value": 1.7}]}
{"molecule": "HRG-β1 177-244 F189A on phage (from UniProt P69168 265-424) (ligand)", "values": [{"measurement": "EC50", "setting": "[3]", "value": 106, "unit": "nM"}, {"measurement": "EC50", "setting": "[4]", "value": 892, "unit": "nM"}]}
{"molecule": "HRG-β1 177-244 F216A on phage (from UniProt P69168 265-424) (ligand)", "values": [{"measurement": "EC50", "setting": "[4]", "value": 500, "unit": "nM"}]}
{"molecule": "B1", "values": [{"measurement": "EC50", "setting": "[5]", "value": 13, "unit": "nM"}, {"measurement": "EC50", "setting": "[6]", "value": 6, "unit": "nM"}, {"measurement": "EC50", "setting": "[7]", "value": 19, "unit": "nM"}]}
{"molecule": "B2", "values": [{"measurement": "EC50", "setting": "[6]", "value": 19, "unit": "nM"}]}
{"molecule": "SHLVKCAEKEKTFCVNGGECFMVKDYGYLMCKCPNEFTGDRCQNYVMAS (ligand, also: three disulfide bonds, pairing not given here)", "note": "[soluble HRG-β1 EGF variant E2]", "values": [{"measurement": "EC50", "setting": "[8]", "value": 2.4, "unit": "nM"}]}
{"molecule": "SHLVKCAEKEKTFCVNGGECYRVKTYGYLMCKCPNEFTGDRCQNYVIAS (ligand, also: three disulfide bonds, pairing not given here, also called D4+E2+M50I)", "note": "[soluble HRG-β1 EGF combination variant HRG58]", "values": [{"measurement": "EC50", "setting": "[8]", "value": 0.3, "unit": "nM"}]}
{"molecule": "B3", "values": [{"measurement": "EC50", "setting": "[9]", "value": 135, "unit": "nM"}, {"measurement": "EC50", "setting": "[10]", "value": 163, "unit": "nM"}, {"measurement": "EC50", "setting": "[6]", "value": 11, "unit": "nM"}]}
{"molecule": "B4", "values": [{"measurement": "EC50", "setting": "[8]", "value": 1.5, "unit": "nM"}, {"measurement": "EC50", "setting": "[11]", "value": 0.033, "unit": "nM"}, {"measurement": "KIRA EC50 (nM): tyrosine phosphorylation of the ErbB-2 receptor on MCF7 cells", "setting": "[12]", "value": 0.212, "unit": "nM"}, {"measurement": "fold higher affinity than for the 3/3 homodimer", "setting": "[13]", "value": "~100", "unit": "fold"}, {"measurement": "EC50", "setting": "[14]", "value": 2.3, "unit": "nM"}]}
{"molecule": "B5", "values": [{"measurement": "EC50", "setting": "[8]", "value": 0.26, "unit": "nM"}, {"measurement": "EC50", "setting": "[14]", "value": 0.6, "unit": "nM"}]}
{"molecule": "B6", "values": [{"measurement": "EC50", "setting": "[8]", "value": 2.1, "unit": "nM"}, {"measurement": "EC50", "setting": "[14]", "value": 4.3, "unit": "nM"}]}
{"molecule": "SHLVKCGEEREGFCVNGGECYRVKTYGYLMCKCPNEFTGDRCQHYVIAS (ligand, also: three disulfide bonds, pairing not given here, also called B3+D4+E2+I2)", "note": "[soluble HRG-β1 EGF combination variant HRG73]", "values": [{"measurement": "EC50", "setting": "[8]", "value": 0.31, "unit": "nM"}]}
